Data from US20170058030A1.

Tests used:
[1] = molecular target: FcγRI-His (human) (UniProt P12314); assay: ELISA, IgG coated, 60 nM FcγRI
[2] = molecular target: FcγRIIb-GST (human) (UniProt P31994); assay: ELISA, IgG coated, 60 nM receptor
[3] = molecular target: FcγRIIIa-F158-GST (human) (UniProt P08637); assay: ELISA, IgG coated, 200 nM receptor
[4] = molecular target: FcγRIIIa-V158-GST (human) (UniProt P08637); assay: ELISA, IgG coated, 200 nM receptor
[5] = molecular target: FcγRIIa-H131-GST (human) (UniProt P12318); assay: ELISA, IgG coated, 200 nM receptor
[6] = molecular target: FcγRIIa-R131-GST (human) (UniProt P12318); assay: ELISA, IgG coated, 200 nM receptor
[7] = molecular target: FcγRI-His (human) (UniProt P12314); assay: SPR, IgG on chip, 200 nM monomeric FcγRI
[8] = molecular target: FcγRIIb-GST (human) (UniProt P31994); assay: SPR, IgG on chip, dimeric FcγRIIB, bivalent fit
[9] = molecular target: FcγRIIb-GST (human) (UniProt P31994); assay: SPR, IgG on chip, dimeric FcγRIIB, bivalent fit, KD = KD1/(1 + 1/KD2)
[10] = molecular target: FcγRIIIa-V158-GST (human) (UniProt P08637); assay: ELISA, STPK-Fc coated, receptor titrated
[11] = molecular target: mFcγRII-His (mouse)
[12] = molecular target: mFcγRIII-His (mouse) (UniProt P08508)
[13] = molecular target: FcγRIIa-H131-GST (human) (UniProt P12318); assay: ELISA: antibody coated on the plate, receptor titrated in 5-fold steps, HRP-labelled secondary antibody, absorbance at 450 nm
[14] = molecular target: FcγRIIa-R131-GST (human) (UniProt P12318); assay: as above
[15] = molecular target: FcγRIIb-GST (human) (UniProt P31994); assay: FACS on spheroplasts, 400 nM FcγRIIB-GST
[16] = molecular target: FcγRIIA (H131 and R131)-GST (human) (UniProt P12318); assay: FACS on spheroplasts, 400 nM FcγRIIA-GST
[17] = molecular target: FcγRIIb-GST (human) (UniProt P31994); assay: FACS on spheroplasts, 400 nM FcγRIIB-GST; remark: listed apart in the source
[18] = molecular target: FcγRIIb-GST (human) (UniProt P31994); assay: FACS on spheroplasts, 100 nM FcγRIIb-GST-PE
[19] = molecular target: mFcγRII-His (mouse); assay: FACS on spheroplasts, 100 nM b-mFcγRII, SA-PE
[20] = molecular target: mFcγRI-His (mouse) (UniProt P08101); assay: FACS on spheroplasts, 1 µM mFcγRI, anti-His-PE
[21] = molecular target: mFcγRIV-His (mouse); assay: FACS on spheroplasts, 1 µM mFcγRIV, anti-His-PE
[22] = molecular target: mFcγRIII-His (mouse) (UniProt P08508); assay: FACS on spheroplasts, 1 µM mFcγRIII, anti-His-PE

Question: For “Rituximab (glycosylated, wild-type IgG1 Fc) (antibody)”, which absorbance at 450 nm [1] is on record?
Answer: 1.51

Question: What about the absorbance at 450 nm [2] of the same substance?
Answer: 0.183

Question: What about the absorbance at 450 nm [3] of the same substance?
Answer: 0.203

Question: What about the absorbance at 450 nm [4] of the same substance?
Answer: 0.848

Question: And the absorbance at 450 nm [5]?
Answer: 2.35

Question: And the absorbance at 450 nm [6]?
Answer: 1.44

Question: And the RUmax [7]?
Answer: 260 RU

Question: And the kD1 [8]?
Answer: 8.69e-06

Question: And the kD2 [8]?
Answer: 13.1

Question: And the Kd [9]?
Answer: 8.07 µM

Question: How did the IC50 [10] turn out when “STPK-mFc (from UniProt P00779 27-440) (Fc fusion)” was run?
Answer: > 0.3 µM

Question: And the Kd [11]?
Answer: 16.1 µM

Question: What about the Kd [12] of the same substance?
Answer: 14.9 µM

Question: With “glycosylated wild type IgG1 (control of Example 10) (antibody)” as the substance, how does the EC50 (read off the curve) [13] read?
Answer: 0.04 µM

Question: What about the EC50 (read off the curve) [14] of the same substance?
Answer: 0.01 µM

Question: With “wild-type aglycosylated IgG1 displayed on E. coli spheroplasts (antibody)” as the substance, how does the MFI [15] read?
Answer: 11.1

Question: And the MFI [16]?
Answer: 40.9

Question: What about the MFI [17] of the same substance?
Answer: 14

Question: And the MFI [18]?
Answer: 23.5

Question: For “wild-type aglycosylated mIgG1 displayed on E. coli spheroplasts (antibody)”, which MFI [19] is on record?
Answer: 61.8

Question: What about the MFI [20] of the same substance?
Answer: 515

Question: And the MFI [21]?
Answer: 155

Question: And the MFI [22]?
Answer: 143
